Laboratory results reported in publication PMC8699718, “A structurally conserved site in AUP1 binds the E2 enzyme UBE2G2 and is essential for ER-associated degradation” (PLoS Biology, 2021).
Ends that are not written are not given here.

System: RI332 (truncated Ribophorin I)
Assay: CHX chase: RI332 degradation in HT1080 AUP1 KO cells
Format: cell-based, human
Details: GFP-G2BR^AUP1 co-expressed with TM-UBE2G2, HT1080 AUP1 KO
Text: Fig 2 The G2BR of AUP1 is required for ERAD of mutant ribophorin and GFP^u. (A) HT1080 or HRD1 KO cells were transfected with plasmid encoding RI332-MYC and with plasmid encoding HRD1 as indicated. Cells were subject to CHX chase and RI332-MYC degradation monitored by western blot. GFP serves as a transfection efficiency control. (B) HT1080 or AUP1 KO cells were transfected with plasmid encoding RI332-MYC and AUP1-FLAG WT or deletion mutants assessed for RI332 degradation. Lower band (*) in MYC blot is nonspecific. (C, D) HEK293 or AUP1 KO cells were assessed for RI332 turnover as in (B). (E) HT1080 or AUP1 KO cells were transfected with GFP^u plasmid, and its degradation assessed by emetine chase, which has previously been used to assess GFP^u turnover. […] (F) HT1080 AUP1 KO cells were transfected with GFP^u and the indicated AUP1-FLAG WT or deletion mutants, and GFP^u degradation assessed as in (E). […]
Fig 8 Recruitment of UBE2G2 to the ER membrane and activation by G2BR^AUP1 is required for ERAD. (A) HT1080 or AUP1 KO cells were transfected with NHK-HA and either empty vector or MYC-UBE2G2 and NHK turnover assessed by CHX chase. (B) AUP1 KO cells were transfected with NHK-HA and GFP fusions of either a scrambled G2BR sequence (SCR) or G2BR^AUP1 and NHK turnover and levels of endogenous UBE2G2 assessed. […] (G) U-2 OS cells were transfected as in (F), and localization assessed by SIM. […]

GFP-G2BR^AUP1: GFP fusion of AUP1 aa 378 to 404 (SSWARQESLQERKQALYEYARRRFTER; also: GFP fusion; UniProt Q9Y679 378-404, looked up, fragment)
RI332 degradation, soluble G2BR with TM-UBE2G2: restored degradation of RI332
